A short description of this data set: yeast display, Sf9 membrane polyspecificity reagent, FACS + sequencing; frameworks hold sequencing errors. An outline of the steps: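 Polyreactivity labels are assigned by the sorting gate from which each nanobody was recovered. The gates were low and high (top ~1%), set on anti-HA fluorescence for expression and streptavidin fluorescence for reagent binding. Before sorting, galactose-induced (36–48 hours) yeast display cells were stained for 1 hour at 4 °C with 10% biotinylated, detergent-solubilized Sf9 membrane reagent.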
For the sequence “QVQLVESGGGLVQAGGSLRLSCAASGIIFRDNAMGWYRQAPGTERELVAAIDSSGGTTYADSVKGRFTISRDNAKNTVYLQMNSLKPEDTAVYYCATEVYSTVSYYGYDYYGRNYYYWGQGPQVTVSS”, the “polyreactivity (PSR sort gate)” value is on record as “low polyreactivity”. For the sequence “QVQLVESGGGLVQAGGSLRLSCAASGIIFRDYGMGWYRQAPGKESEIVATITYSGGGTYYADSVKGRFTISRDNANNTVYLQMNSLKPEDTAVYYCAAYPFYYDLAYDYWGQGTQVTVSS”, the “polyreactivity (PSR sort gate)” value is “low polyreactivity”. As to “QVQLVESGGGLVQAGGSLRLSCAASGIIFRGNAMGWYRQAHGKERELVAAISSAGSTNYADSVKGRFTISRDNAKNTVYLQMNSLKPEVTAVFYCAKGSIKYHVTLRGRGYYWGQGTQVTVSS”, the “polyreactivity (PSR sort gate)” value is listed as “low polyreactivity”.

Consider “QVQLVESGGGLVQAGGSLRLSCAASGIIFRGYAMGWYRQAPGKERELVASITRRGGSTRYADSVKGRFTISRDNAKNTVYLQMNSLKPEDTAVYYCAAVRVHTDRYNYWGQGTQVTVSS”, for which the “polyreactivity (PSR sort gate)” value is “high polyreactivity”. For the sequence “QVQLVESGGGLVQAGGSLRLSCAASGIIFRLNTMGWYRQAPGKEREFVAAITSGGSTHYADSVKGRFTISRDNAKNTVYLQMNSLKPEDTAVYYCAAGHRANYWAWHFYYPGDYWGQGTQVTVSS”, the “polyreactivity (PSR sort gate)” value is “low polyreactivity”. For “QVQLVESGGGLVQAGGSLRLSCAASGIIFRRYAMGWYRQAPGKERELVAAISSRGGSTYYADSVKRRFTISRDNAKNTVYLQMNSLKPEDTAVYYCAKGFSGTGGSGDFGYWGQGTQVTVSS”, the “polyreactivity (PSR sort gate)” value is “high polyreactivity”.

Consider “QVQLVESGGGLVQAGGSLRLSCAASGIIFRRYAMGWYRQAPGKERELVAVITSGGSTNYADSVKGRFTISRDNAKNTVYLQMNSLKPEDTAVYYCAAKGWVYWIRSRYDYWGQGTQVTVSS”, for which the “polyreactivity (PSR sort gate)” value is on record as “high polyreactivity”. The same measure for “QVQLVESGGGLVQAGGSLRLSCAASGIIFRSYAMGWYRQAPGKERELVAAITRSGGSTYADSVKGRFTISRDNAKNTVYLQMTSLKPEDTAVYYCAADRYSGWVYRRDYWGQGTQVTVSS”: “low polyreactivity”; for “QVQLVESGGGLVQAGGSLRLSCAASGIIFRVYAMGWYRQAPGKERELVATITWSGGSTFYADSVKGRFTISRDNAKNPVDLQRNSLTPEDTAVYYCAARGYLRREQLYVLIRYDYWGQGTQVTVSS”: “low polyreactivity”; for “QVQLVESGGGLVQAGGSLRLSCAASGIIFRWYAMGWYRQAPGKERELVAGITSTTGTTYYADSVKGRFTISRDNAKNTVYLQMNSLKPEDSAVYYCAADYYWYTTAGVVDSFEYWGQGTQVTVSS”: “low polyreactivity”. In the case of “QVQLVESGGGLVQAGGSLRLSCAASGIIFRWYGMGWYRQAPGKERELVATITSGGRTNYADSVKGRFTISRDNAKNTVYLQMNSLKPEDTAVYYCAAEKWTVRRFNPYTYYRYDYWGQGTQVTVSS” it was “low polyreactivity”; in that of “QVQLVESGGGLVQAGGSLRLSCAASGIIFRWYTMGWYRQAPGKERELVAAISTSTGSTYYADSVKGRFTISRDNAKNTVYLQMNSLKPEDTAVYYCNARQFSGLGYWGQGTQVTVSS”, “high polyreactivity”. In the case of “QVQLVESGGGLVQAGGSLRLSCAASGIIFRYNAMGWYRQAPGKARELVAALSFRGGSTRYADSVKGRCTISRDTATNTVYLQMNSLKPEDTAVYYCNAQRRTYIYDYWGQGTQVTVSS”, the “polyreactivity (PSR sort gate)” value is listed as “high polyreactivity”.

Take “QVQLVESGGGLVQAGGSLRLSCAASGIIFRYNAMGWYRQAPGKERELVAAISRSSGSTYYADSVKGRFTISRDNAKNTVYLQMNSLKPEDTAVYYCAAYPRYRVEYWGQGTQVTVSS”: the “polyreactivity (PSR sort gate)” value was “high polyreactivity”. Regarding “QVQLVESGGGLVQAGGSLRLSCAASGIIFRYNAMGWYRQAPGKERELVAAISTGGSTNYADSVKGRFTISRDNAKNTVYLQMNSLKPEDTAVYYCAADWHRAYGAYDYWGQGTQVTVSS”, the “polyreactivity (PSR sort gate)” value is listed as “low polyreactivity”. “QVQLVESGGGLVQAGGSLRLSCAASGIIFRYYDMGWYRQAPGKERELVARITSRGGTYYADSVKGRFTISRDNATNTVYLKMNSLKPEDTAVYYCAASYLLTHGYAYNYWGQGTQVTVSS”: the “polyreactivity (PSR sort gate)” value is given as “high polyreactivity”. The same measure for “QVQLVESGGGLVQAGGSLRLSCAASGIIFSDYAMGWYRQAPGKERELVAAITGGGSTYYADSVKGRFTISRDNAKNTVYLQMNRLKPEDTAVYYCNADWARLLIRSTEFDYWGQGTQVTVSS”: “low polyreactivity”; for “QVQLVESGGGLVQAGGSLRLSCAASGIIFSEYAMGWSRQAPGKERELVAAITKSGGSTYYADSVKGRFTISRDNAKNTVYLQMNSLKPEDTAVYYCAKKTPYIRGKDNYWGQGTQVNVSS”: “low polyreactivity”.

As to “QVQLVESGGGLVQAGGSLRLSCAASGIIFSFYAMGWYRQAPGKERELVAAISRSGGSTYYADSVKGRFTISRDNEKNSVYLQMNSLKPEDTAVYYCNADNGASYYYRRYDSLGQGTQVTVSS”, the “polyreactivity (PSR sort gate)” value is recorded as “high polyreactivity”.

“QVQLVESGGGLVQAGGSLRLSCAASGIIFSHYAMGWYRQAPGKERELVAAISSRGGSTYYADSVKGRFTISRDNAKNTVYLQMNSLKPEDTAVYYCNAKWTSHGTYAEDYWGQGTQVTVSS”: the “polyreactivity (PSR sort gate)” value is “high polyreactivity”.

For “QVQLVESGGGLVQAGGSLRLSCAASGIIFSINAMGWDRQAPGKERELVAAISRSGGSTNYADSVKGRFTISRDNAKNTVYLQMNSLKPEDTAVYYCATVHRYSVWSHNYWGQGTQVTVAS”, the “polyreactivity (PSR sort gate)” value is reported as “high polyreactivity”.

For the sequence “QVQLVESGGGLVQAGGSLRLSCAASGIIFSIYAMGWYRQAPGKERELVAVISRSSGSTYYADSVKGRFTISRDNAKNTVYLQMNSLKPEDTAVYYCAADRYSYGSNGYPRFEYYYWGQGTQVTVSS”, the “polyreactivity (PSR sort gate)” value is “high polyreactivity”. In the case of “QVQLVESGGGLVQAGGSLRLSCAASGIIFSIYTMGRYRQAPGKERELVAAINRSGSRTYYADSVKGRFTISRDNAKNTVYLQMNSLKPEDTAVYYCAAGTGSRDYYWGQGTQVTVSS” it was “high polyreactivity”; in that of “QVQLVESGGGLVQAGGSLRLSCAASGIIFSLNTMGWYRQAPGKERELVAAISSSGGSTYYADSVKGRFTISRDNAKNTVYLQMTSLKPEDTAVYYCARRYAPNTSLTFYYWGQGTQVTVSS”, “low polyreactivity”. “QVQLVESGGGLVQAGGSLRLSCAASGIIFSPYAMGRYRQAPGKERELVAAITYSGDTTYYADSVKGRFTISRDNAKNTVYLQMNSLKPEDTAVYYCAVEDAGQGGDYWGQGTQVTVSS”: the “polyreactivity (PSR sort gate)” value is on record as “low polyreactivity”. In the case of “QVQLVESGGGLVQAGGSLRLSCAASGIIFSPYAMGWYRQAPVKERELVAAISYSGGSTYYADSVKGRFTISRDNAKNTVYLQMNSLKPEDTAVYYCAVVYSYYLAVLGYWDYDYWGQGTQVTVSS”, the “polyreactivity (PSR sort gate)” value was “low polyreactivity”.

Turning to “QVQLVESGGGLVQAGGSLRLSCAASGIIFSRYVMGWSRQAPGKERELVAAISGSGGSTYYADSVKGRFTISRDNAKNTVYLQMNSLKPEDTAVYYCAKRRSWSNRIYGYWGQGTQVTVSS”, the “polyreactivity (PSR sort gate)” value is recorded as “high polyreactivity”. With “QVQLVESGGGLVQAGGSLRLSCAASGIIFSSNAMGWYRQAPGKERELVAAISRRGGSTYYADSVKGRFTISRDNAKNTVYLQMNSLKPEDTAVYYCNALLYNGAGYDYWGQGTQVTVSS”, the “polyreactivity (PSR sort gate)” value is reported as “high polyreactivity”. As for “QVQLVESGGGLVQAGGSLRLSCAASGIIFSSYAMGWYRQAPGKERELVAAISLSGGSTYYADSVKGRFTISRDNAKNTVYLQMNSLKPEDTAVFYCNTVRQRARFTKVDYWGQGTQVTVSS”, the “polyreactivity (PSR sort gate)” value is “high polyreactivity”. Turning to “QVQLVESGGGLVQAGGSLRLSCAASGIIFSSYGMGWYRQAPGKERELVAAIRWSTGNTYYADSVKGRFTISRDNAKNTVYLQMNSLKPEDTAVYYCAKRSSWGYHFYYWGQGTQVTVSS”, the “polyreactivity (PSR sort gate)” value is recorded as “high polyreactivity”. On to “QVQLVESGGGLVQAGGSLRLSCAASGIIFSWYDMGWYRKAPGKERELVAAISSGDRTNYADSVKGRFTISRDNAKNTVYLQMNSLKPEDTAVYYCAADLFPIAGEYDYWGQGTQVTVSS”, for which the “polyreactivity (PSR sort gate)” value is recorded as “high polyreactivity”. With “QVQLVESGGGLVQAGGSLRLSCAASGIIFSYNAMGWYRQAPGKERELVAAITRRGTRTYYADSVKGRFTISRDNAKNTVYLQMNSLKPEDSAVYYCAADYVRPGTKYDYWGQGTQVTVSS”, the “polyreactivity (PSR sort gate)” value was “high polyreactivity”. The same measure for “QVQLVESGGGLVQAGGSLRLSCAASGIIFSYNAMGWYRQAPGKERELVAAITRTGSTNYADSVKGRFTISRDNAKNTVYLQMNSLKPEDTAVYYCAAGWGYGRYRHVGYRMDYWGQGTQVTVSS”: “high polyreactivity”; for “QVQLVESGGGLVQAGGSLRLSCAASGIIFTDNALGWYRQAPGKERELVATISWSTDNTYYADSVKGRFTISRDNAKNTVYLQMNSLKPEDTAVYYCAAEEYYAYWYQYDYWGQGTQVTVSS”: “low polyreactivity”; for “QVQLVESGGGLVQAGGSLRLSCAASGIIFTGYTMGWYRQAPGKERELVAAITWRGGSTYYADSVKGRFTISRDNAKNTVYLQMNSLKPEDTAVYYCAAEGWYSWDDDYWGQGTQVTVSS”: “low polyreactivity”. With “QVQLVESGGGLVQAGGSLRLSCAASGIIFTKYAMGWYRQAPGKERELVAAITASGGSTYYADSVKGRFTISRDNAKNTVYLQMNSLKPEDTAVYYCAARSQSRYGYWGQGTQVTVSS”, the “polyreactivity (PSR sort gate)” value is reported as “high polyreactivity”.

On to “QVQLVESGGGLVQAGGSLRLSCAASGIIFTKYVMGWYRQAPGKERELVAAINTDGGSTRYADSVKGRFTISRDNAKNTVYLQKNSLKPEDTAVYYCAAVSSRRPGYEYYYWGQGTQVTVSS”, for which the “polyreactivity (PSR sort gate)” value was “high polyreactivity”. With “QVQLVESGGGLVQAGGSLRLSCAASGIIFTSNTMGWYRQAPGKEREFVASINWNGSSTYADSVKGRFTISRDNAKNTVYLQMNSLKPEDTAVYYCAAEASPRLYRKYDYWGQGTQVTVSS”, the “polyreactivity (PSR sort gate)” value is listed as “low polyreactivity”. With “QVQLVESGGGLVQAGGSLRLSCAASGIIFTYNAMGWSRQAPGKERELVAAINSSGGSTNYADSVKGRFTISRDNAKNTVYLQMNSLKPEDTAVYYCAARDATYYGVWRYYGIDDYWGQGTQVTVSS”, the “polyreactivity (PSR sort gate)” value is on record as “low polyreactivity”. Turning to “QVQLVESGGGLVQAGGSLRLSCAASGIIFTYYAMGWYRQAPGKERELVAAISVSGSSTYYADSVKGRFTISRDNAKNTVYLQMNSLKPEDTAVYYCAARYQWGTRGFGYWGQGTQVTVSS”, the “polyreactivity (PSR sort gate)” value is “high polyreactivity”. Turning to “QVQLVESGGGLVQAGGSLRLSCAASGIIFVENAMGWYRQAPGKERDLVASGDSTYADSVKGRFTIARDNAKNTVYLQMNSLKPEDNAVYYCNTDGYPRLYIYDYWGQGTQVTVSS”, the “polyreactivity (PSR sort gate)” value is “low polyreactivity”.

The values are drawn from the nanobody polyreactivity screen of Harvey et al. (2022).
